{"source": "patent US20040086946A1", "about": "“Methods of isolation of active compounds and activated targets” (priority 2002, published 2004)", "key": {"scFv-P2Y6": {"test_system": "scFv-P2Y6", "assay": "Activation of scFv-P2Y6 in HEK293 cells, aequorin luminescence", "format": "cell-based, human", "settings": "non-anchored agonists", "from_the_text": "A fusion protein was constructed between a single chain antibody against fluorescein (Boder et al. (2000) Proc. Natl. Acad. Sci. USA 97:10701-5) (docking domain) and the human P2Y6 receptor (GenBank accession number: NP_004145) (active domain). The target fusion protein, termed scFv-P2Y6, was co-transfected with the calcium-sensitive luminescent protein aequorin into HEK293 cells. After two days, the transfected cells were pre-loaded for two hours with the aequorin substrate coelenterazine (Molecular Probes) and then various amounts of UDP, UTP or ATP were added immediately followed by measurement of luminescence (FIG. 5A). The activation profile of these three agonists on the fusion protein closely mimicked their activation of the unfused P2Y6 receptor (not shown). […] In contrast to ATP alone, an anchored compound, a fluorescein-ATP conjugate (FITC-ATP; Perkin-Elmer), was able to activate the scFv-P2Y6 receptor at low concentrations (FIG. 5B) with a half-maximal stimulation occurring at about 10 nM."}, "FcR-MC4R": {"biological_target": "T1, FcR-MC4R (Homo sapiens, UniProt P12314+P32245)", "T1 construct": "extracellular domain (residues 1-292, with its own signal peptide) of human Fc-gammaR1 = CD64 (NM_000566); expressed in transfected cells; host or cells: HEK293", "T1 sequence (P12314+P32245 fused)": "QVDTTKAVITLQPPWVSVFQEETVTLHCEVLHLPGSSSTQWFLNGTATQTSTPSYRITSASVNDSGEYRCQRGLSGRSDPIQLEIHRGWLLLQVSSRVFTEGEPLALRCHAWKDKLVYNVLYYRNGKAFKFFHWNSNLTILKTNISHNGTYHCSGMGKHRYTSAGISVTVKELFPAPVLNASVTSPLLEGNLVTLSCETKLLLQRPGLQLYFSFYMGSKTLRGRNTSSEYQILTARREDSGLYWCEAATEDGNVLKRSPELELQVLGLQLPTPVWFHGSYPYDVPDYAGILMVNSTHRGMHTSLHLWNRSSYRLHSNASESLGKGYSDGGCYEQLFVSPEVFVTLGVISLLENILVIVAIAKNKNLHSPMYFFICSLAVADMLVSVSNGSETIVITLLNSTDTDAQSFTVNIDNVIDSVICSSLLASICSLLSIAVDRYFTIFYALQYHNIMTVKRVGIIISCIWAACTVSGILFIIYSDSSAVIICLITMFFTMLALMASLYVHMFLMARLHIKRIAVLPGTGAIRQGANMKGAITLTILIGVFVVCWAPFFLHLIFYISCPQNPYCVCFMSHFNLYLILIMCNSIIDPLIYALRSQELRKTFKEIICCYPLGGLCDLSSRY", "assay": "Inhibition by AGRP of FcR-MC4R activation, CRE-luciferase reporter", "format": "cell-based", "description": "Activation of FcR-MC4R was assayed 6 hours after compound addition using a co-transfected CRE-luciferase construct (pCRE-Luc; Stratagene) and measuring luminescence after lysis and addition of the luciferase substrate (Tropix Luciferase Assay Kit)."}, "[1]": {"biological_target": "FcR-MC4R fusion protein (human)", "sequence (P12314 other isoform, or with tags, fused parts or gaps, form in doubt)": "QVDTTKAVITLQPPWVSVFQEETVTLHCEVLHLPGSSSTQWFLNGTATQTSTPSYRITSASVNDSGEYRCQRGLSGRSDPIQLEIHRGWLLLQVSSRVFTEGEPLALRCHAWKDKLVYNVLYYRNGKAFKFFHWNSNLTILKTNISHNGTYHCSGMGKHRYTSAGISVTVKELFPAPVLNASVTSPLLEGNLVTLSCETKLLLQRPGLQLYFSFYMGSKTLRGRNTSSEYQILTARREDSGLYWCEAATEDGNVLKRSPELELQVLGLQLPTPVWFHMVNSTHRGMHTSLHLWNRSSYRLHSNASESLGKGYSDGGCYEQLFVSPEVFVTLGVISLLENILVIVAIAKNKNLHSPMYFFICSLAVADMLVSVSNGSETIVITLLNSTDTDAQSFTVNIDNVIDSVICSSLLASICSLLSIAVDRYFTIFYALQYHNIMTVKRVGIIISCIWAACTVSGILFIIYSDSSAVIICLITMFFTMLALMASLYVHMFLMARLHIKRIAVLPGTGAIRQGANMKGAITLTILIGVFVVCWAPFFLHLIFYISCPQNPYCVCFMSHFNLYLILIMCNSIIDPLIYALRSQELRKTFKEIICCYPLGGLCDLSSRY", "assay": "cell-based or functional assay"}, "melanocortin receptors": {"test_system": "melanocortin receptors", "settings": "cited from earlier work"}, "[2]": {"test_system": "Alpha1-mc4r, Alpha2-MC4R, OGH-MC4R and HCG-MC4R", "sequence (P32245 whole entry, the tested form may be a part)": "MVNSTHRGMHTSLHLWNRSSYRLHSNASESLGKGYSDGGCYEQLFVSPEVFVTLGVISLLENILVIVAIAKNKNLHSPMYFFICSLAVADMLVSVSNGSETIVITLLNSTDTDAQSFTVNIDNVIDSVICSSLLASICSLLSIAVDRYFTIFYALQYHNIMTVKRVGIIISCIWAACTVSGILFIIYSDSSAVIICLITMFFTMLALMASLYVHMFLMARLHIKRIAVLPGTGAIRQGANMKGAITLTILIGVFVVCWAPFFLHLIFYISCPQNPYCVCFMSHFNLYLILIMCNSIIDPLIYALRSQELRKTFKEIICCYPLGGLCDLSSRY", "assay": "Glycoprotein hormone subunit-based extracellular 2-hybrid screen, CRE-luciferase reporter in HEK293 cells", "format": "cell-based", "settings": "relative to no ligand control; two days after transfection", "description": "Signal sequences were included at the beginning of each construct.\nTwo days after transfection, the activity of the target fusion protein was measured by assaying luciferase activity as relative light units (Y axis, FIG. 7) on a luminometer."}, "[3]": {"biological_target": "FcR-MC4R fusion protein (human)", "assay": "cell-based or functional assay", "remark": "listed apart in the source"}}, "note": "No end group written: not given here."}
{"molecule": "Nc1ncnc2c1ncn2[C@@H]1O[C@H](COP(=O)(O)OP(=O)(O)OP(=O)(O)O)[C@@H](O)[C@H]1O", "note": "[ATP]", "values": [{"measurement": "activation of scFv-P2Y6 (relative potency in words)", "setting": "scFv-P2Y6", "result": "required much higher concentrations"}]}
{"molecule": "agouti-related protein (SSRRCVRLHESCLGQQVPCCDPCATCYCRFFNAFCYCRKLGTAMNPCSRT; UniProt O00253 83-132, looked up) [AGRP, known antagonist of the MC4 receptor]", "values": [{"measurement": "effect of increasing amounts of inhibitor on stimulation by HFRW-Fc", "setting": "FcR-MC4R; FcR-MC4R activated with anchored agonist HFRW-Fc", "result": "dramatically reduce the maximal stimulation levels"}, {"measurement": "effect of increasing amounts of inhibitor on α-MSH dose response", "setting": "FcR-MC4R; FcR-MC4R activated with natural agonist α-MSH", "result": "shift the dose response curve of α-MSH progressively to the right"}]}
{"molecule": "O=c1ccn([C@@H]2O[C@H](COP(=O)(O)OP(=O)(O)OP(=O)(O)O)[C@@H](O)[C@H]2O)c(=O)[nH]1", "note": "[UTP]", "values": [{"measurement": "activation of scFv-P2Y6 (relative potency in words)", "setting": "scFv-P2Y6", "result": "required much higher concentrations"}]}
{"molecule": "α-MSH-Fc (from UniProt P01189 138-150) (Fc fusion)", "values": [{"measurement": "amount of compound for half-maximal stimulation of MC4R (CRE-luciferase)", "setting": "[1]", "result": 100, "unit": "fold less"}]}
{"molecule": "His Phe Arg Trp [HFRW]", "values": [{"measurement": "activation of melanocortin receptors", "setting": "melanocortin receptors", "result": "fully activate melanocortin receptors, but only at very high concentrations"}]}
{"molecule": "O=c1ccn([C@@H]2O[C@H](COP(=O)(O)OP(=O)(O)O)[C@@H](O)[C@H]2O)c(=O)[nH]1", "note": "[UDP]", "values": [{"measurement": "activation of scFv-P2Y6 (relative potency in words)", "setting": "scFv-P2Y6", "result": "most potent activator"}]}
{"molecule": "alpha2: glycoprotein hormone subunit alpha2 as anchor component fused to HFRW via a 13 amino acid spacer (protein) QEAVIPGCHLHPFNVTVRSDRQGTCQGSHVAQACVGHCESSAFPSRYSVLVASGYRHNITSVSQCCTISGLKKVKVQLQCVGSRREELEIFTARACQCDMCRLSRY", "values": [{"measurement": "binding between anchor and docking glycoprotein hormone subunits, seen as increased MC4R activity", "setting": "[2]", "result": "binds to OGH, hCG, and itself"}]}
{"molecule": "HFRW-Fc (Fc fusion, part only; not given: Fc and linker, not shown: a dimerising Fc or GST, also: Fc junction, isotype and linker not given here)", "note": "[HFRW-Fc]", "values": [{"measurement": "half maximal level of the response (activation of MC4R, CRE-luciferase reporter, transiently transfected HEK293 cells)", "setting": "[3]", "result": "< 1", "unit": "nM"}]}
